According to patent US20030099647A1 (Amgen, published 2003):

Target: T1, CHO expressed human interferon gamma (hIFNγ) (human, UniProt P01579 24-161, glycosylated (highly glycosylated form purified))
T1 construct: mature; The form 'mature' is inferred from secretion into conditioned medium; also called hu-IFNγ; hu IFNγ
T1 sequence (looked up): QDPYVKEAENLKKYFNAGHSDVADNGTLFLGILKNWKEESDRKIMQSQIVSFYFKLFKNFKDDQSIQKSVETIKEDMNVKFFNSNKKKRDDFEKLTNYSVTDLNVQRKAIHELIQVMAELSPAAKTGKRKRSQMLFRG
Experiment: BIAcore neutralization assay; inhibition of hu IFNγ binding to IFNγ-R1

IC50: 9 nM
B1: BS-B IgG (antibody, V domains shown)
VH: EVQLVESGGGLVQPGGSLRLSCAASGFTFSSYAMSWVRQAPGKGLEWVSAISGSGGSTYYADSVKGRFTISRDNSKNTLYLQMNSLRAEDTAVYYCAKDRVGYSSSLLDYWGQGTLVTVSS
VL: NFMLTQPHSVSESPGKTVTISCTRSSGSIASYYVQWYQQRPGSSPTTVIYEDDQRPSGVPDRFSGSIDSASNSASLTISGLQTEDEADYYCQSYDRNSLVFGGGTKLTVLG
notes: The construction is described for BS-A; the others were cloned 'using similar procedures'; The VH limits 1-121 come from the germline comparison legend; also called BS-B full-length human IgG1 antibody; not shown: human IgG1 constant region (CH1, hinge, CH2 and CH3 domains) of plasmid pDSRα19:hIgG1 CH
